Experimental data published in patent publication US20100260668A1 (published 2010).

Key:
[1] = target: T1, DLL4 ECD/His tag (R&D 1506-D4-050) (UniProt Q9NR61 27-529); test: direct bind ELISA, DLL4 on plate; DLL4 VD N-term.; HC Long, LC Long
T1 construct: extracellular domain; Bought antigen coated on the ELISA plate; not shown: His tag

[2] = target: T1, DLL4 ECD/His tag (R&D 1506-D4-050); test: direct bind ELISA, DLL4 on plate; DLL4 VD N-term.; HC Short, LC Long
[3] = target: T2, DLL4 (DLL4 ECD/His tag, R&D Systems 1506-D4-050) (UniProt Q9NR61 27-529); test: Direct bind ELISA on DLL4; DLL4 domain N-term., HC short, LC short
T2 construct: extracellular domain; not shown: His tag

[4] = target: T1, DLL4 ECD/His tag (R&D 1506-D4-050); test: direct bind ELISA, DLL4 on plate; DLL4 VD N-term.; HC Long, LC Short

B1: DVD497 (bispecific antibody, human IgG1, kappa)
heavy: not shown
light: DIQMTQSSSYLSVSLGGRVTITCKASDHINNWLAWYQQKPGNAPRLLISGATSLETGVPSRFSGSGSGKDYTLSITSLQTEDVATYYCQQYWSIPLTFGAGTKLELKRTVAAPSVFIFPPDIQMTQSPSSLSASVGDRVTITCRASQVIRRSLAWYQQKPGKAPKLLIYAASNLASGVPSRFSGSGSGTDFTLTISSLQPEDFATYYCQQSNTSPLTFGQGTKVEIKRTVAAPSVFIFPPSDEQLKSGTASVVCLLNNFYPREAKVQWKVDNALQSGNSQESVTEQDSKDSTYSLSSTLTLSKADYEKHKVYACEVTHQGLSSPVTKSFNRGEC
notes: DVD-Ig; outer AB072 (DLL4), inner AB071 (VEGF); HC long, LC long linker; also called DVD497H; DVD497L
- EC50 [1]: 0.53 nM

B2: DVD509 (bispecific antibody, human IgG1, kappa)
heavy: not shown
light: B1 light
notes: DVD-Ig; outer AB072 (DLL4), inner AB071 (VEGF); HC short, LC long linker; also called DVD509H; DVD509L
- EC50 [2]: 0.21 nM

B3: DVD463 (bispecific antibody, human IgG1, kappa)
heavy: not shown
light: DIVMTQSPDSLAVSLGERATISCRASESVDNYGISFMKWFQQKPGQPPKLLIYAASNQGSGVPDRFSGSGSGTDFTLTISSLQAEDVAVYYCQQSKEVPWTFGGGTKVEIKRTVAAPSVFIFPPDIQMTQSPSSLSASVGDRVTITCRASQVIRRSLAWYQQKPGKAPKLLIYAASNLASGVPSRFSGSGSGTDFTLTISSLQPEDFATYYCQQSNTSPLTFGQGTKVEIKRTVAAPSVFIFPPSDEQLKSGTASVVCLLNNFYPREAKVQWKVDNALQSGNSQESVTEQDSKDSTYSLSSTLTLSKADYEKHKVYACEVTHQGLSSPVTKSFNRGEC
notes: DVD-Ig; outer AB069 (DLL4), inner AB071 (VEGF); HC short, LC long linker; also called DVD463H; DVD463L
- EC50 [2]: 0.5 nM

B4: DVD465 (DLL4/VEGF DVD-Ig) (bispecific antibody, human IgG1)
VH: EVQLVESGGGLVQPGGSLRLSCAASGFTFTDNWISWVRQAPGKGLEWVGYISPNSGFTYYADSVKGRFTISADTSKNTAYLQMNSLRAEDTAVYYCARDNFGGYFDYWGQGTLVTVSSASTKGPEVQLVESGGGLVQPGGSLRLSCAASGFTISDYWIHWVRQAPGKGLEWVAGITPAGGYTYYADSVKGRFTISADTSKNTAYLQMNSLRAEDTAVYYCARFVFFLPYAMDYWGQGTLVTVSS
VL: DIQMTQSPSSLSASVGDRVTITCRASQDVSTAVAWYQQKPGKAPKLLIYSASFLYSGVPSRFSGSGSGTDFTLTISSLQPEDFATTYYCQQSYTGTVTFGQGTKVEIKRTVAAPDIQMTQSPSSLSASVGDRVTITCRASQDVSTAVAWYQQKPGKAPKLLIYSASFLYSGVPSRFSGSGSGTDFTLTISSLQPEDFATYYCQQSYTTPPTFGQGTKVEIKR
notes: HC linker short, LC linker short; also called DVD465H; DVD465L
- EC50 [3]: 0.57 nM

B5: DVD503 (bispecific antibody, human IgG1, kappa)
heavy: not shown
light: DIQMTQSSSYLSVSLGGRVTITCKASDHINNWLAWYQQKPGNAPRLLISGATSLETGVPSRFSGSGSGKDYTLSITSLQTEDVATYYCQQYWSIPLTFGAGTKLELKRTVAAPDIQMTQSPSSLSASVGDRVTITCRASQVIRRSLAWYQQKPGKAPKLLIYAASNLASGVPSRFSGSGSGTDFTLTISSLQPEDFATYYCQQSNTSPLTFGQGTKVEIKRTVAAPSVFIFPPSDEQLKSGTASVVCLLNNFYPREAKVQWKVDNALQSGNSQESVTEQDSKDSTYSLSSTLTLSKADYEKHKVYACEVTHQGLSSPVTKSFNRGEC
notes: DVD-Ig; outer AB072 (DLL4), inner AB071 (VEGF); HC long, LC short linker; also called DVD503H; DVD503L
- EC50 [4]: 0.33 nM

B6: DVD527 (bispecific antibody, human IgG1, kappa)
heavy: not shown
light: QAVVTQESALTTSPGETVTLTCRSSTGAVTTSNYANWVQEKPDHLFTGLIGGTNNRAPGVPARFSGSLIGDKAALTITGAQTEDEAIYFCALWYSNHWVFGGGTKLTVLGQPKAAPDIQMTQSPSSLSASVGDRVTITCRASQVIRRSLAWYQQKPGKAPKLLIYAASNLASGVPSRFSGSGSGTDFTLTISSLQPEDFATYYCQQSNTSPLTFGQGTKVEIKRTVAAPSVFIFPPSDEQLKSGTASVVCLLNNFYPREAKVQWKVDNALQSGNSQESVTEQDSKDSTYSLSSTLTLSKADYEKHKVYACEVTHQGLSSPVTKSFNRGEC
notes: DVD-Ig; outer AB073 (DLL4), inner AB071 (VEGF); HC long, LC short linker; also called DVD527H; DVD527L
- EC50 [4]: 0.2 nM

B7: DVD457 (bispecific antibody, human IgG1, kappa, L234A L235A)
heavy: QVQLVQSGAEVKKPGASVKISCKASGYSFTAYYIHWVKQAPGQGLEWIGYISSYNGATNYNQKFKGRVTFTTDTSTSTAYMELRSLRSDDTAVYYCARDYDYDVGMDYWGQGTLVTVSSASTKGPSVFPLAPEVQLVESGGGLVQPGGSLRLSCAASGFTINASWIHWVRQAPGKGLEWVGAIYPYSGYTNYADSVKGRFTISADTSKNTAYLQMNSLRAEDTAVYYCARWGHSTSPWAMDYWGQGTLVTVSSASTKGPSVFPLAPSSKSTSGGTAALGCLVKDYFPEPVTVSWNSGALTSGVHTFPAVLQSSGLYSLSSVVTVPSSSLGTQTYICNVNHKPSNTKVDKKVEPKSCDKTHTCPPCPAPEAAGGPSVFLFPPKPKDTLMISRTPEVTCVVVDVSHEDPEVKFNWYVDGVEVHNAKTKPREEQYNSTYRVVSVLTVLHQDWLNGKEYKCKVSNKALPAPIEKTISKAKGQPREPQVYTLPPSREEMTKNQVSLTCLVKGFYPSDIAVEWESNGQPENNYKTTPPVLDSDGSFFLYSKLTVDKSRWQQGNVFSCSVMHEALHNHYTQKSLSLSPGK
light: DIVMTQSPDSLAVSLGERATISCRASESVDNYGISFMKWFQQKPGQPPKLLIYAASNQGSGVPDRFSGSGSGTDFTLTISSLQAEDVAVYYCQQSKEVPWTFGGGTKVEIKRTVAAPDIQMTQSPSSLSASVGDRVTITCRASQVIRRSLAWYQQKPGKAPKLLIYAASNLASGVPSRFSGSGSGTDFTLTISSLQPEDFATYYCQQSNTSPLTFGQGTKVEIKRTVAAPSVFIFPPSDEQLKSGTASVVCLLNNFYPREAKVQWKVDNALQSGNSQESVTEQDSKDSTYSLSSTLTLSKADYEKHKVYACEVTHQGLSSPVTKSFNRGEC
notes: DVD-Ig; outer AB069 (DLL4), inner AB071 (VEGF); HC long, LC short linker; also called DVD457H; DVD457L
- EC50 [4]: 0.13 nM

B8: DVD533 (bispecific antibody, human IgG1, kappa, lambda, L234A L235A)
heavy: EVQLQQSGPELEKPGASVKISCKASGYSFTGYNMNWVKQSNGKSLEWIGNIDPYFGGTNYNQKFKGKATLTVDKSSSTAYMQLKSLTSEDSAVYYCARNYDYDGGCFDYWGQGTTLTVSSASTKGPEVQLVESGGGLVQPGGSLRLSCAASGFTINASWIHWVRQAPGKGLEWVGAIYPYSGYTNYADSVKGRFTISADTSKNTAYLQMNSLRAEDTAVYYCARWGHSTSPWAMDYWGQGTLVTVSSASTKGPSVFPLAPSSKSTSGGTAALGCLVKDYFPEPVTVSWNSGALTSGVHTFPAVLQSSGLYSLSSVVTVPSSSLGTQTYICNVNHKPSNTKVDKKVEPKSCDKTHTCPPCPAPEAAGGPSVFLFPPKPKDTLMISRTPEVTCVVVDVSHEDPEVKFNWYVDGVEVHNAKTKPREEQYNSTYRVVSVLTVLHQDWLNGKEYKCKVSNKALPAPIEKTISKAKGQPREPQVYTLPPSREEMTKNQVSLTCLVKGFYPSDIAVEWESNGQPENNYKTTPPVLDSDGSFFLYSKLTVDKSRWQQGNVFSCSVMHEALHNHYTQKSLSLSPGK
light: QAVVTQESALTTSPGETVTLTCRSSTGAVTTSNYANWVQEKPDHLFTGLIGGTNNRAPGVPARFSGSLIGDKAALTITGAQTEDEAIYFCALWYSNHWVFGGGTKLTVLGQPKAAPSVTLFPPDIQMTQSPSSLSASVGDRVTITCRASQVIRRSLAWYQQKPGKAPKLLIYAASNLASGVPSRFSGSGSGTDFTLTISSLQPEDFATYYCQQSNTSPLTFGQGTKVEIKRTVAAPSVFIFPPSDEQLKSGTASVVCLLNNFYPREAKVQWKVDNALQSGNSQESVTEQDSKDSTYSLSSTLTLSKADYEKHKVYACEVTHQGLSSPVTKSFNRGEC
notes: DVD-Ig; outer AB073 (DLL4), inner AB071 (VEGF); HC short, LC long linker; also called DVD533H; DVD533L
- EC50 [2]: 0.25 nM

B9: DVD479 (bispecific antibody, human IgG1, kappa)
heavy: not shown
light: DIQMTQSPSSLSASVGDRVTITCRASQDVSTAVAWYQQKPGKAPKLLIYSASFLYSGVPSRFSGSGSGTDFTLTISSLQPEDFATTYYCQQSYTGTVTFGQGTKVEIKRTVAAPDIQMTQSPSSLSASVGDRVTITCRASQVIRRSLAWYQQKPGKAPKLLIYAASNLASGVPSRFSGSGSGTDFTLTISSLQPEDFATYYCQQSNTSPLTFGQGTKVEIKRTVAAPSVFIFPPSDEQLKSGTASVVCLLNNFYPREAKVQWKVDNALQSGNSQESVTEQDSKDSTYSLSSTLTLSKADYEKHKVYACEVTHQGLSSPVTKSFNRGEC
notes: DVD-Ig; outer AB015 (DLL4), inner AB071 (VEGF); HC long, LC short linker; also called DVD479H; DVD479L
- EC50 [4]: 1.69 nM

B10: DVD443 (DLL4/VEGF DVD-Ig) (bispecific antibody, human IgG1)
VH: QVQLVQSGAEVKKPGASVKISCKASGYSFTAYYIHWVKQAPGQGLEWIGYISSYNGATNYNQKFKGRVTFTTDTSTSTAYMELRSLRSDDTAVYYCARDYDYDVGMDYWGQGTLVTVSSASTKGPEVQLVESGGGLVQPGGSLRLSCAASGFTISDYWIHWVRQAPGKGLEWVAGITPAGGYTYYADSVKGRFTISADTSKNTAYLQMNSLRAEDTAVYYCARFVFFLPYAMDYWGQGTLVTVSS
VL: DIVMTQSPDSLAVSLGERATISCRASESVDNYGISFMKWFQQKPGQPPKLLIYAASNQGSGVPDRFSGSGSGTDFTLTISSLQAEDVAVYYCQQSKEVPWTFGGGTKVEIKRTVAAPDIQMTQSPSSLSASVGDRVTITCRASQDVSTAVAWYQQKPGKAPKLLIYSASFLYSGVPSRFSGSGSGTDFTLTISSLQPEDFATYYCQQSYTTPPTFGQGTKVEIKR
notes: HC linker short, LC linker short; also called DVD443H; DVD443L
- EC50 [3]: 0.2 nM

B11: DVD485 (bispecific antibody, human IgG1, kappa)
heavy: not shown
light: DIQMTQSPSSLSASVGDRVTITCRASQDVSTAVAWYQQKPGKAPKLLIYSASFLYSGVPSRFSGSGSGTDFTLTISSLQPEDFATTYYCQQSYTGTVTFGQGTKVEIKRTVAAPSVFIFPPDIQMTQSPSSLSASVGDRVTITCRASQVIRRSLAWYQQKPGKAPKLLIYAASNLASGVPSRFSGSGSGTDFTLTISSLQPEDFATYYCQQSNTSPLTFGQGTKVEIKRTVAAPSVFIFPPSDEQLKSGTASVVCLLNNFYPREAKVQWKVDNALQSGNSQESVTEQDSKDSTYSLSSTLTLSKADYEKHKVYACEVTHQGLSSPVTKSFNRGEC
notes: DVD-Ig; outer AB015 (DLL4), inner AB071 (VEGF); HC short, LC long linker; also called DVD485H; DVD485L
- EC50 [2]: 1.41 nM
